# Literature values, collected in paper PMC10404681, “Intrinsic catalytic properties of histone H3 lysine-9 methyltransferases preserve monomethylation levels under low S-adenosylmethionine” (The Journal of Biological Chemistry, 2023).
# Target: histone H3 peptide (Homo sapiens) (UniProt P68431)
# Sequence of EHMT1/EHMT2 heterodimer (Q9H9B1 2-1298): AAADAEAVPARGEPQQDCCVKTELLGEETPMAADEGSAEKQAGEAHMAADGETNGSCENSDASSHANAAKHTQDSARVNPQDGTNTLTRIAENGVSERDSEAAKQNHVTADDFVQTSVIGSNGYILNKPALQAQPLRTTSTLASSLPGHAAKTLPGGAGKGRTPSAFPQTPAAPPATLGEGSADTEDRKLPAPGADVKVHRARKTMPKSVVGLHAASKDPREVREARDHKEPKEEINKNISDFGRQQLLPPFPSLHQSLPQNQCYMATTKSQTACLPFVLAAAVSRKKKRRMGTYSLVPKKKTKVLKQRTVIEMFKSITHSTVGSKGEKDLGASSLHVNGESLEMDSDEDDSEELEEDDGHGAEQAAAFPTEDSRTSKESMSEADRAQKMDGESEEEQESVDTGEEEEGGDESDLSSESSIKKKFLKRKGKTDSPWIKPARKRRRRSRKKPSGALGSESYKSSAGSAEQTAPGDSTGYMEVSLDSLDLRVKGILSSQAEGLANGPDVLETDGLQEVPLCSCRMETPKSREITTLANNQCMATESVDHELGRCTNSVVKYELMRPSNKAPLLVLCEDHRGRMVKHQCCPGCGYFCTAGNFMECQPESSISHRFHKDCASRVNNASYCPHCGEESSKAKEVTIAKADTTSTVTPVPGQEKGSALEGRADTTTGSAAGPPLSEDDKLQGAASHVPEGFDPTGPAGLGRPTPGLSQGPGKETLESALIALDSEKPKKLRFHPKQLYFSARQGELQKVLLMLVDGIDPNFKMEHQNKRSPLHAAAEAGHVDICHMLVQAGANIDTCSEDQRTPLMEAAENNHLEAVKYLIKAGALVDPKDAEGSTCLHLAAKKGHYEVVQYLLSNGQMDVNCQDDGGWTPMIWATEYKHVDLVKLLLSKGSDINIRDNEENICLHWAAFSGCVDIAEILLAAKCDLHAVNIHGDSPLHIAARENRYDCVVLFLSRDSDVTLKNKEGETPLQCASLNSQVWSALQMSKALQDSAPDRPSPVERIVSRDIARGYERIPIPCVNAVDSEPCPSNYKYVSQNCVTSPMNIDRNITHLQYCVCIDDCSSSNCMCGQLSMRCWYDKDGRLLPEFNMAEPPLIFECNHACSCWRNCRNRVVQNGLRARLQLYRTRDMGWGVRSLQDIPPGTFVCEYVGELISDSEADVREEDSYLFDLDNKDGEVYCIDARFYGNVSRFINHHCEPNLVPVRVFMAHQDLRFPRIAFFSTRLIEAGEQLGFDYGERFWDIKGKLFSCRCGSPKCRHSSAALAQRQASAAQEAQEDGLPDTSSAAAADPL
# Sequence of EHMT1/EHMT2 heterodimer (Q96KQ7 2-1210, further chain): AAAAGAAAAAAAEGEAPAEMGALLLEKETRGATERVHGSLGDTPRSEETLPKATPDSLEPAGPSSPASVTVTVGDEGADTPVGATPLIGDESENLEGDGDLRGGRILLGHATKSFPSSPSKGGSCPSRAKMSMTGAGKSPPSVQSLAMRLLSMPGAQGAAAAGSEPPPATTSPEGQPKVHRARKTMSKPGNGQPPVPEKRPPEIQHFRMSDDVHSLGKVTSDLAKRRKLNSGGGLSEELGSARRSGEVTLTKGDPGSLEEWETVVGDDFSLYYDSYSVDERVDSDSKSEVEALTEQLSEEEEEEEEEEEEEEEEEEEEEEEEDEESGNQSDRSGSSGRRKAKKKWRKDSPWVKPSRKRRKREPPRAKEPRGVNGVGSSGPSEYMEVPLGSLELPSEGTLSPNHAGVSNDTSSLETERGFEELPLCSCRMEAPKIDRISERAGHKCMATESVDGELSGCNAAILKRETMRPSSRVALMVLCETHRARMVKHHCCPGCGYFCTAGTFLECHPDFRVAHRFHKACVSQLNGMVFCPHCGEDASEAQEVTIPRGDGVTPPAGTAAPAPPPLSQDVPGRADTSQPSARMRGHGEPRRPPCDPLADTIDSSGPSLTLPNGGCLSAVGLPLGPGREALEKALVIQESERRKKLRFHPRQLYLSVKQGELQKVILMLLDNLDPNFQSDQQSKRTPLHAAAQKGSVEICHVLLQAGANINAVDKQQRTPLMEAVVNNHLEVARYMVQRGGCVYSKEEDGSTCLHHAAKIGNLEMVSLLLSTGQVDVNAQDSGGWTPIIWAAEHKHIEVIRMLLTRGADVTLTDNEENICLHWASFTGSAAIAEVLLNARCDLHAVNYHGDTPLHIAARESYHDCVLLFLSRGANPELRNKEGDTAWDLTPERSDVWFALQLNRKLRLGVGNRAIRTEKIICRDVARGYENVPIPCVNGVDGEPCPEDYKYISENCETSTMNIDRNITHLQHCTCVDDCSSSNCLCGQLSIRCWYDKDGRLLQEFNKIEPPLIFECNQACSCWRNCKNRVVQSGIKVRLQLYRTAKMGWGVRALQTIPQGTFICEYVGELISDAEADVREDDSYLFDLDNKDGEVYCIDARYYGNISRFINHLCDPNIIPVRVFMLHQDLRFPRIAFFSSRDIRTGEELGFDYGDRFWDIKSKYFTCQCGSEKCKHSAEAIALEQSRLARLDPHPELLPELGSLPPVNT
substance,measurement,value
EHMT1/EHMT2 heterodimer (from UniProt Q9H9B1),Kd,7.35 µM
